Data published in PMC5687603.

Experiments:
[1] = DHE staining, flow cytometry, HEK293; details: glycan lost; control: Skl (wild type)
[2] = GSH/GSSG-Glo luminescence assay; details: glycan lost; control: Skl (wild type)

B1: short-form Klotho (Skl): Skl3N (protein)
parent chain: MLARAPPRRPPRLVLLRLLLLHLLLLALRARCLSAEPGQGAQTWARFARAPAPEAAGLLHDTFPDGFLWAVGSAAYQTEGGWRQHGKGASIWDTFTHHSGAAPSDSPIVVAPSGAPSPPLSSTGDVASDSYNNVYRDTEGLRELGVTHYRFSISWARVLPNGTAGTPNREGLRYYRRLLERLRELGVQPVVTLYHWDLPQRLQDTYGGWANRALADHFRDYAELCFRHFGGQVKYWITIDNPYVVAWHGYATGRLAPGVRGSSRLGYLVAHNLLLAHAKVWHLYNTSFRPTQGGRVSIALSSHWINPRRMTDYNIRECQKSLDFVLGWFAKPIFIDGDYPESMKNNLSSLLPDFTESEKRLIRGTADFFALSFGPTLSFQLLDPNMKFRQLESPNLRQLLSWIDLEYNHPPIFIVENGWFVSGTTKRDDAKYMYYLKKFIMETLKAIRLDGVDVIGYTAWSLMDGFEWHRGYSIRRGLFYVDFLSQDKELLPKSSALFYQKLIEDNGFPPLPENQPLEGTFPCDFAWGVVDNYVQVSPLTKPSVGLLLPH
- other: antioxidant activity (lowering of intracellular O2-) [1]: decreases
- other: antioxidant activity (raising of GSH/GSSG ratio) [2]: abolishes

B2: short-form Klotho (Skl): SklN285A (protein)
parent chain: MLARAPPRRPPRLVLLRLLLLHLLLLALRARCLSAEPGQGAQTWARFARAPAPEAAGLLHDTFPDGFLWAVGSAAYQTEGGWRQHGKGASIWDTFTHHSGAAPSDSPIVVAPSGAPSPPLSSTGDVASDSYNNVYRDTEGLRELGVTHYRFSISWARVLPNGTAGTPNREGLRYYRRLLERLRELGVQPVVTLYHWDLPQRLQDTYGGWANRALADHFRDYAELCFRHFGGQVKYWITIDNPYVVAWHGYATGRLAPGVRGSSRLGYLVAHNLLLAHAKVWHLYNTSFRPTQGGRVSIALSSHWINPRRMTDYNIRECQKSLDFVLGWFAKPIFIDGDYPESMKNNLSSLLPDFTESEKRLIRGTADFFALSFGPTLSFQLLDPNMKFRQLESPNLRQLLSWIDLEYNHPPIFIVENGWFVSGTTKRDDAKYMYYLKKFIMETLKAIRLDGVDVIGYTAWSLMDGFEWHRGYSIRRGLFYVDFLSQDKELLPKSSALFYQKLIEDNGFPPLPENQPLEGTFPCDFAWGVVDNYVQVSPLTKPSVGLLLPH
- other: antioxidant activity (raising of GSH/GSSG ratio) [2]: abolishes
